Data on 1 substance can be found in article PMC9127804.

In this test the target is N-terminal hexahistidine-tagged CrlT (Pseudomonas aeruginosa WK172). The experiment in a line: pull-down; NHis-CrlT and untagged CrlA co-produced from pET28b-His-crlTA in E. coli BL21; Ni-NTA resin, lysis buffer 50 mM potassium phosphate pH 8.0, 300 mM NaCl; Tricine-SDS-PAGE.

What is called stoichiometry N is a count of units in the complex or per binding partner.

“untagged antitoxin CrlA (natural protein)” returned a stoichiometry N of 1.
